{"source": "paper PMC11098746", "about": "(2024)", "experiment_in_all_cases": "AVEXIS screen signal:noise (double-corrected)", "key": {"ADP386": {"molecular_target": "ADP386"}, "ADP385": {"molecular_target": "T1, ADP385", "T1 chain": "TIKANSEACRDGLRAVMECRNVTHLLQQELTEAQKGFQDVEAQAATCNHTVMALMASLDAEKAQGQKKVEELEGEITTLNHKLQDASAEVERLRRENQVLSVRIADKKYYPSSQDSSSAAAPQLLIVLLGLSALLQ"}, "ADP377": {"molecular_target": "T2, ADP377", "T2 chain": "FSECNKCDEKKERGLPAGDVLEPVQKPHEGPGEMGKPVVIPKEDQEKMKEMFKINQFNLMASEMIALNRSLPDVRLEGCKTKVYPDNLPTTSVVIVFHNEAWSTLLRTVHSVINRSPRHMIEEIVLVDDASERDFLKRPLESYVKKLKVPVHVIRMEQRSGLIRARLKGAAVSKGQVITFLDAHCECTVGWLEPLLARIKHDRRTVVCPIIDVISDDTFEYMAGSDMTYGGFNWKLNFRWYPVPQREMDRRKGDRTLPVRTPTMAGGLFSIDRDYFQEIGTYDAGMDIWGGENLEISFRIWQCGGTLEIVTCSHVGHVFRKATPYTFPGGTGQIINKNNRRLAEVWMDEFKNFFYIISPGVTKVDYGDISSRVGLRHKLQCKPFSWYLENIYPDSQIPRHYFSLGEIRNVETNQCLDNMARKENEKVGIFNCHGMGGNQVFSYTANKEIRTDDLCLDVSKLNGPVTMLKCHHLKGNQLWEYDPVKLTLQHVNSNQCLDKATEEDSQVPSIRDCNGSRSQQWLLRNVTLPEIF"}, "ADP269": {"molecular_target": "T3, ADP269", "T3 chain": "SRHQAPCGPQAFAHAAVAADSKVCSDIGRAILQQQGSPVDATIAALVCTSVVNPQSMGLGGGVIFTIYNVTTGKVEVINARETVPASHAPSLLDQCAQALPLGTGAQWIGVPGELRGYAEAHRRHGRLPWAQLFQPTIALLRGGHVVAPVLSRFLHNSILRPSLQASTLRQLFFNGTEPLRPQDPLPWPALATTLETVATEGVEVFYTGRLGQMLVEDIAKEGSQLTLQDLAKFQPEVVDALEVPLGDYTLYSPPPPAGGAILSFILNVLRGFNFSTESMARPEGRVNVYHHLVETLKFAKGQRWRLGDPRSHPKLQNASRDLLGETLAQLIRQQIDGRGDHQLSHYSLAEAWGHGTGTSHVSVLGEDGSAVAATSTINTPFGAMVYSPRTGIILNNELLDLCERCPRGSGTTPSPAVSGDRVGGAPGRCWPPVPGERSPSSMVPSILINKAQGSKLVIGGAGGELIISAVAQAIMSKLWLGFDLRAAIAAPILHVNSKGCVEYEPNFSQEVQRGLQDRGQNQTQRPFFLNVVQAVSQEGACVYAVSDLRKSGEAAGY"}, "ADP099": {"molecular_target": "ADP099", "sequence (P02786 89-760)": "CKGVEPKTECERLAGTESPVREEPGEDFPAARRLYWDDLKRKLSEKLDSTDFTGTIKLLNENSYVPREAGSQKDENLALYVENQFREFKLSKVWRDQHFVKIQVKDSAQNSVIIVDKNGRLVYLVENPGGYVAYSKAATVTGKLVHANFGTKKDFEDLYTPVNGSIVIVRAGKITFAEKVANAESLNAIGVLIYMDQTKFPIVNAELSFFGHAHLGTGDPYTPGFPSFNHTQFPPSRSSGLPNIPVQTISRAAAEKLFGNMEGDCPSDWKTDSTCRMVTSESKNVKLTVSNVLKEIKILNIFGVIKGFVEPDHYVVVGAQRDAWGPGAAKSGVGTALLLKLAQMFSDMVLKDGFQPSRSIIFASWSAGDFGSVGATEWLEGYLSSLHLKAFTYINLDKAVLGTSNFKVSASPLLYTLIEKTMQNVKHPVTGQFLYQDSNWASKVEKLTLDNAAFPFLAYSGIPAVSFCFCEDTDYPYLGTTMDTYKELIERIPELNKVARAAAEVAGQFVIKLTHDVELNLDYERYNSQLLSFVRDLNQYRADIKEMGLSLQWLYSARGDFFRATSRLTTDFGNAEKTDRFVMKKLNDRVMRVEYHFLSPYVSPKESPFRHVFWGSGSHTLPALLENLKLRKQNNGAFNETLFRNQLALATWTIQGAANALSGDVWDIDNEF"}, "ADP096": {"molecular_target": "T4, ADP096", "T4 chain": "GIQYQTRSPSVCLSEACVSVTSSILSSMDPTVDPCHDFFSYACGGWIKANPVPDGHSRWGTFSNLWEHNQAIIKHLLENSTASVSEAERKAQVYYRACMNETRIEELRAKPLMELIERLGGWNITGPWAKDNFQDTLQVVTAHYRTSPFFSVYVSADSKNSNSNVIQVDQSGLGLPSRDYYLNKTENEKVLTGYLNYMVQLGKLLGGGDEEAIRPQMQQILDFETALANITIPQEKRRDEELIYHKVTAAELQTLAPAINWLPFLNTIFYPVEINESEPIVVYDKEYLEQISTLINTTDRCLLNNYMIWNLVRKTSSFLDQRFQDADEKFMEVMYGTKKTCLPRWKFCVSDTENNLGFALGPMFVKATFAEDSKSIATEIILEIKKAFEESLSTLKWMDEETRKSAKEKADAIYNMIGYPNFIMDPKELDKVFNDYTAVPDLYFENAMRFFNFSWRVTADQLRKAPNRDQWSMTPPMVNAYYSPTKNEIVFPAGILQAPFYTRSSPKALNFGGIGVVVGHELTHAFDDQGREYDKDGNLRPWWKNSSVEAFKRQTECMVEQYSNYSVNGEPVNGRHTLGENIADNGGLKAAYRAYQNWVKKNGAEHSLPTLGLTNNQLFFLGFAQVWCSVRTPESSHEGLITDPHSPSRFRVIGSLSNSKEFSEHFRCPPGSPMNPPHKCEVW"}, "ADP379": {"molecular_target": "T5, ADP379", "T5 chain": "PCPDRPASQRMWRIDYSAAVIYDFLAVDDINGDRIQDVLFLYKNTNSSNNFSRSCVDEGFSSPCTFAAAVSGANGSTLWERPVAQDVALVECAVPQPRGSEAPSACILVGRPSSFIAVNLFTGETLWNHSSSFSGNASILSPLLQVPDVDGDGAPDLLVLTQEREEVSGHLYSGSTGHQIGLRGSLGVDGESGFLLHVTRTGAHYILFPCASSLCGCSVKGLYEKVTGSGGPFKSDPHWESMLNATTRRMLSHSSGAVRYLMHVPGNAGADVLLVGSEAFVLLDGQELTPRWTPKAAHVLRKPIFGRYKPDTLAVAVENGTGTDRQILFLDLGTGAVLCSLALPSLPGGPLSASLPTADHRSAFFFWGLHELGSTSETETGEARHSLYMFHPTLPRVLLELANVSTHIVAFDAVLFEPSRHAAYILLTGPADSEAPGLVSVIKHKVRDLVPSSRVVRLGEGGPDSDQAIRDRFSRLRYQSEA"}}}
{"binder": "ADP237 (protein, bait human Fc-tagged dimer; N-glycosylation sequons mutated in Plasmodium baits) TKKKVSVSEINFDSAVDDVQWCGNNHMTVLVKTVKGRLYRSSDGGKIWTNIAGNLADKENNKADPSSNHMNEMTTVDLIMVNSVNKNIVLIIGNQKNHYISEDSGETFRLLNYQNKINFWQFHSTKTHWALVSSWTEACYSNDDNSGECMQTLSLTKDLGRTFQLIDIYVVQFNWGDKESHLEDTIYYTRHKNRNGHQQRFSGWSKDVDFVATHNFGKSVDVLVKQGNKFLISNGYIFVAKLNDVIKQTVNMMVSTDGGKTFNKANLPENIHEKSYTVLDTSEGSIMLHVNHGTSSEKINTGNVYISDASGLNYALSLPNNIRTSSGECEFDRVLSLDGVYIANFLDVNNEIKDEDLRFQNFKSAIEEDIAPFETNTEKRKKQYNKGKNEDAVRTVISFNKGGEWSYLKAPKVDSRGNKYECGDNCYLHLHGITNYHQYAPFYSIENAVGIIMGTGNVGSHLRYESDEVNTFLSRDGGVTWIEAHKGPYIYEYGDYGGLIVMADDLRKTNQIVFSWNEGQSWFDFELGQFSIDVDNIVAEPNSASVEFLVYGTRNDVGVLYHLDFNALGQPLCKGLWAADSVSSDYETWSPTSGNFNDKCILGRKITYTRRKQTSECFNGKDLKRTVDKKPCECTPEDYECETGFTRKIGSYECKPNDPTLTIEGCTSSSYFYANAYRKVPGDICVNGWVPEKVPVPCPSYAPFNKAAK", "values": [{"measurement": "binding score", "setting": "ADP386", "value": 19.2}, {"measurement": "binding score", "setting": "ADP385", "value": 5.45}, {"measurement": "binding score", "setting": "ADP377", "value": 11.5}, {"measurement": "binding score", "setting": "ADP269", "value": 10.4}, {"measurement": "binding score", "setting": "ADP099", "value": 5.11}, {"measurement": "binding score", "setting": "ADP096", "value": 16.2}, {"measurement": "binding score", "setting": "ADP379", "value": 16.2}]}
